Patent US20090311257A1 (XOMA TECHNOLOGY, published 2009)
Where no end group is shown, it is not given here.

B1: human gastrin (h-G17) (ligand, UniProt P01350 76-92, looked up)
peptide: QGPWLEEEEEAYGWMDF

Key:
[1] = target: T1, CCK2R on the CCK2R overexpressing cell line AGS-TR (UniProt P32239 1-447, limits assumed); assay: cell-based or functional assay
T1 sequence (looked up): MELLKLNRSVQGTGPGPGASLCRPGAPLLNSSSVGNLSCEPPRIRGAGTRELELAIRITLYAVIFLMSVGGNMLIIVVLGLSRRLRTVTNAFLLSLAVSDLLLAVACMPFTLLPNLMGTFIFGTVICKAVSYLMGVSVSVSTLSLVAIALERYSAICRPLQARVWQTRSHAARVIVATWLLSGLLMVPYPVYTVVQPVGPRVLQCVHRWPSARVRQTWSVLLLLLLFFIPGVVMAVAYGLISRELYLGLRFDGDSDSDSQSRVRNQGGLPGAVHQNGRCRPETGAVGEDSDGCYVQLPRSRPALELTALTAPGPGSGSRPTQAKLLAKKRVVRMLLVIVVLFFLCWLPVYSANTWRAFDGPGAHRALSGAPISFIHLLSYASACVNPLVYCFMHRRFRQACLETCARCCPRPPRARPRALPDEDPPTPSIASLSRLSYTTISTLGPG

[2] = target: B1; assay: cell-based or functional assay
[3] = target: T2, biotinylated 10 amino acid peptide from the N terminal portion of Gastrin 17 (human, UniProt P01350 76-85, limits assumed, ends and bridges not checked); assay: SPR (BIACORE 2000), antibody over low-density biotinylated peptide on streptavidin chip; from kinetic rate constants; parental fragment, Table 3 comparator to the matured fragments
T2 construct: domain: 10 amino acid peptide from the N terminal portion of Gastrin 17; Panning target; also called biotinylated peptide; biotinylated peptides
T2 peptide (looked up): QGPWLEEEEE-biotin
Protocol: (§1) Affinities of the parental (XPA067) and matured antibody fragments were determined by surface plasmon resonance using a BIACORE® 2000. Affinity constants were calculated from the kinetic rate constants for antibody binding to biotinylated peptide immobilized on a Streptavidin sensor chip.
(§2) A very low density of peptide was immobilized in order to avoid bivalent binding by the antibodies to the sensor chip. Antibodies were tested in triplicate at six concentrations of three-fold serial dilutions. Data were analyzed using BiaEval Software.

[4] = target: B1; assay: cell-based or functional assay
[5] = target: T2, biotinylated 10 amino acid peptide from …; assay: SPR, measured as described previously (BIACORE, biotinylated peptide on streptavidin chip); reformatted IgG
Protocol: as §1, §2
Antibody affinity was measured as described previously.

[6] = target: B1; assay: KD measurement of reformatted IgG; method and antigen form not stated in the example; reformatted IgG, Table 2 lead selection
[7] = target: B1; assay: KD measurement of reformatted IgG; method and antigen form not stated in the example
[8] = target: B1; assay: summary sentence of the filing's own data; method not given; antibody not named

Binder	Ca flux neutralization at 2x molar excess [2]	Ca flux neutralization at roughly 100 fold molar excess over gastrin (1 nM) [2]	also measured
B1	–	–	calcium flux EC50 (AGS-TR cells) [1]: 1 nM
XPA061 (phage display-derived antibody fragment) (antibody, V domains shown) VH: QVQLVQSGAEVKKPGSSVKVSCKISGGTFSSHAIGWVRQAPGQGLEWIGRIIPSLDLDNSAPKFQDRVTITADKFTNTAYMELRNLRPEDTAFYYCTGDPLYNWTGAHWGRGTMVTVSS VL: QAVLTQPSSLSASPGASASLTCTLRSDINVGTYRIYWYQQKSGSPPQYLLRYRSDSDKQQGSGVPSRFSGSKDASANAGILLISGLQSEDEADYYCMIWHSSAWVFGGGTKVTVL	~70%	~80%	–
XPA081 (phage display-derived antibody fragment) (antibody, V domains shown) VH: EVQLVQSGAEVKKPGSSVTVSCKASGGTFDKYAIGWVRQAPGQGLEWMGRIIPSLDLDNSAQKFQDRVTITADKFTTTVYMKLSNLRPEDTAIYYCTRDPLYQWSGSYWGKGTLVTVSS VL: QAVLTQPSSLSASPGASASLTCTLRSDINVGTYRIYWYQQKPGSPPQYLLRYKSDSDKQQGSGVPSRFSGSKDASANAGILLISGLQSGDGADYYCMIWHSSAWVFGGGTKLTVL	< 20%	~80%	–
XPA065 (phage display-derived antibody fragment) (antibody, V domains shown) VH: EVQLVQSGAEVKKPGSSVTVSCKASGGTFDKYAIGWVRQAPGQGLEWMGRIIPTLDLANSAQKFQDRVTITADKFTTTVYMELTNLRPEDTAMYYCTRDPLYNWSGSYWGRGTMVTVSS VL: QAVLTQPSSLSASPGTSASLTCTLRSGINVGSYRIYWYQQRPGSPPQYLLRYKSDSDKQQGSGVPSRFSGSKDASANAGVLFISGLQSDDEADYYCMIWHNSAWVFGGGTKLTVL	< 20%	~80%	–
XPA067 (parental antibody fragment) (antibody, V domains shown, also called parental (XPA067)) VH: EVQLVQSGAEVKKPGSSVTVSCKASGGTFDKYAIGWVRQAPGQGLEWMGRIIPTLDLANSAQKFQDRVTITADKFTTTVYMELTNLRPEDTAMYYCTRDPLYNWSGSYWGRGTMVTVSS VL: QAVLTQPSSLSASPGASASLTCTLRSGINVGTYRIYWYQQKPGSPPQYLLRYKSDSDKQQGSGVPSRFSGSKDASANAGILLISGLQSEDEADYYCMIWHSSAWVFGGGTKLTVL	< 20%	~80%	Kd [3]: ~5 nM
XPA063 (phage display-derived antibody fragment) (antibody, V domains shown) VH: EVQLVQSGAEVKKPGSSVTVSCKASGGTFDKYAIGWVRQAPGQGLEWMGRIIPSLDLDNSAQKFQDRVTITADKFTTTVYMKLSNLRPEDTAMYYCTRDPLYNWSGSYWGRGTMVTVSS VL: QAVLTQPSSLSASPGASASLTCTLRSGINVGTYRIYWYQQKPGSPPQYLLRYKSDSDKQQGSGVPSRFSGSKDASANAGILLISGLQSEDEADYYCMIWHSSAWVFGGGTKLTVL	< 20%	> 70%	–
XPA067 reformatted whole human IgG (antibody, V domains shown, also called parent antibody XPA067; parental a-gastrin mAb) VH: EVQLVQSGAEVKKPGSSVTVSCKASGGTFDKYAIGWVRQAPGQGLEWMGRIIPTLDLANSAQKFQDRVTITADKFTTTVYMELTNLRPEDTAMYYCTRDPLYNWSGSYWGRGTMVTVSS VL: QAVLTQPSSLSASPGASASLTCTLRSGINVGTYRIYWYQQKPGSPPQYLLRYKSDSDKQQGSGVPSRFSGSKDASANAGILLISGLQSEDEADYYCMIWHSSAWVFGGGTKLTVL	–	–	Ca Flux IC50 [4]: 0.76 nM; pERK IC50 (nM) [4]: 0.56 nM; Kd [5]: ~5 nM; Kd [6]: 3.9 nM
XPA061 reformatted whole human IgG (antibody, V domains shown) VH: QVQLVQSGAEVKKPGSSVKVSCKISGGTFSSHAIGWVRQAPGQGLEWIGRIIPSLDLDNSAPKFQDRVTITADKFTNTAYMELRNLRPEDTAFYYCTGDPLYNWTGAHWGRGTMVTVSS VL: QAVLTQPSSLSASPGASASLTCTLRSDINVGTYRIYWYQQKSGSPPQYLLRYRSDSDKQQGSGVPSRFSGSKDASANAGILLISGLQSEDEADYYCMIWHSSAWVFGGGTKVTVL	–	–	Ca Flux IC50 [4]: 1.34 nM; pERK IC50 (nM) [4]: 0.42 nM; Kd [7]: 9.9 nM
a monoclonal antibody with affinity of about 10^-9 M (anti-gastrin, not named in the sentence) (antibody, V domains shown) VH: EVQLVQSGAEVKKPGSSVTVSCKASGGTFDKYAIGWVRQAPGQGLEWMGRIIPTLDLANSAQKFQDRVTITADKFTTTVYMELTNLRPEDTAMYYCTRDPLYNWSGSYWGRGTMVTVSS VL: QAVLTQPSSLSASPGASASLTCTLRSGINVGTYRIYWYQQKPGSPPQYLLRYKSDSDKQQGSGVPSRFSGSKDASANAGILLISGLQSEDEADYYCMIWHSSAWVFGGGTKLTVL	–	–	Kd [8]: ~1 nM
